From publication PMC9482650, “Quantitative fragmentomics allow affinity mapping of interactomes” (Nature Communications, 2022)

The binders below were run against T1, DLG3_3, Q92796 (assay: holdup assay). Settings: plain residues with an end cap or a label only (N-terminal biotin on a linker: ado-ado).
T1 sequence (Q92796 374-475, limits assumed, looked up): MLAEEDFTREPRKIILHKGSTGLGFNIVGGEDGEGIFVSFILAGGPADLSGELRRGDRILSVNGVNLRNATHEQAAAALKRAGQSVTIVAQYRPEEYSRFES
Design: key: below the threshold = too weak to quantify, mostly under pKd 3.1 to 4

pKd | Binder
below the threshold | TRKRSGEAAV [PFKM, P08237]
3.63 | SLNANEVEWF [RNF130, Q86XS8]

The binders below were run against T2, MPDZ_5, O75970 (assay: holdup assay). Settings: plain residues with an end cap or a label only (N-terminal biotin on a linker: ado-ado).
T2 sequence (O75970 695-796, limits assumed, looked up): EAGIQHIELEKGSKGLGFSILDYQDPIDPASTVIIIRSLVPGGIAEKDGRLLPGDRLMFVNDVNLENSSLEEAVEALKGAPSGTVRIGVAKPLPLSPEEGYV
Design: key: below the threshold = too weak to quantify, mostly under pKd 3.1 to 4

pKd | Binder
below the threshold | TRKRSGEAAV [PFKM, P08237]
below the threshold | SLNANEVEWF [RNF130, Q86XS8]

These binders were tested against SCRIB_2, Q14160 (assay: holdup assay). Settings: plain residues with an end cap or a label only (N-terminal biotin on a linker: ado-ado).
SCRIB_2, Q14160, sequence (Q14160 857-960): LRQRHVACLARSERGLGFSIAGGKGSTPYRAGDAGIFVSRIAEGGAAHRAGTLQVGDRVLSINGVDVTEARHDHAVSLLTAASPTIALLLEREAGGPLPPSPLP
Design: key: below the threshold = too weak to quantify, mostly under pKd 3.1 to 4

pKd | Binder
below the threshold | TRKRSGEAAV [PFKM, P08237]
3.57 | SLNANEVEWF [RNF130, Q86XS8]

What follows are binders tested against NHERF2_2, Q15599 (assay: holdup assay). Settings: plain residues with an end cap or a label only (N-terminal biotin on a linker: ado-ado).
NHERF2_2, Q15599, sequence (Q15599 142-238): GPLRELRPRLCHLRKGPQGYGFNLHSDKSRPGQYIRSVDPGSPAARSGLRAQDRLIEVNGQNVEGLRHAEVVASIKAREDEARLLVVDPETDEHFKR
Design: key: below the threshold = too weak to quantify, mostly under pKd 3.1 to 4

pKd | Binder
below the threshold | TRKRSGEAAV [PFKM, P08237]
4.56 | SLNANEVEWF [RNF130, Q86XS8]

These binders were tested against MAGI1_1, Q96QZ7 (assay: holdup assay). Settings: plain residues with an end cap or a label only (N-terminal biotin on a linker: ado-ado).
MAGI1_1, Q96QZ7, sequence (Q96QZ7 1-106): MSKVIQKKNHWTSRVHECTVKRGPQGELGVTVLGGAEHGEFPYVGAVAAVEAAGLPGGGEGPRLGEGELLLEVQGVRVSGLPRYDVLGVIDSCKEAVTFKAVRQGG
Design: key: below the threshold = too weak to quantify, mostly under pKd 3.1 to 4

pKd | Binder
below the threshold | TRKRSGEAAV [PFKM, P08237]
below the threshold | SLNANEVEWF [RNF130, Q86XS8]

The binders below were run against T3, APBA1_1, Q02410 (assay: holdup assay). Settings: plain residues with an end cap or a label only (N-terminal biotin on a linker: ado-ado).
T3 sequence (Q02410 651-752, limits assumed, looked up): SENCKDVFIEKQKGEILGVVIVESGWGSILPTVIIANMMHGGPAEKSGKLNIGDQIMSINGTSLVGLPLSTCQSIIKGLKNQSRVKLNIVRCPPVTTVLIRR
Design: key: below the threshold = too weak to quantify, mostly under pKd 3.1 to 4

pKd | Binder
below the threshold | TRKRSGEAAV [PFKM, P08237]
3.56 | SLNANEVEWF [RNF130, Q86XS8]

Each binder was assayed against LDB3, O75112 (assay: holdup assay). Settings: plain residues with an end cap or a label only (N-terminal biotin on a linker: ado-ado).
LDB3, O75112, sequence (O75112 1-94): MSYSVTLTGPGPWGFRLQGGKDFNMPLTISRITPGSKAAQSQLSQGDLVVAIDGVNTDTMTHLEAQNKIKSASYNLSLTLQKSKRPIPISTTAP
Design: key: below the threshold = too weak to quantify, mostly under pKd 3.1 to 4

pKd | Binder
below the threshold | TRKRSGEAAV [PFKM, P08237]
below the threshold | SLNANEVEWF [RNF130, Q86XS8]

Each binder was assayed against GRID2IP_2, A4D2P6 (assay: holdup assay). Settings: plain residues with an end cap or a label only (N-terminal biotin on a linker: ado-ado).
GRID2IP_2, A4D2P6, sequence (A4D2P6 272-370): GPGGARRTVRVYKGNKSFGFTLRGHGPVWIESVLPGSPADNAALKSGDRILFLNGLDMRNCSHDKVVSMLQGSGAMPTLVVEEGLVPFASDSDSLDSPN
Design: key: below the threshold = too weak to quantify, mostly under pKd 3.1 to 4

pKd | Binder
below the threshold | TRKRSGEAAV [PFKM, P08237]
below the threshold | SLNANEVEWF [RNF130, Q86XS8]

What follows are binders tested against NHERF4_2, Q86UT5 (assay: holdup assay). Settings: plain residues with an end cap or a label only (N-terminal biotin on a linker: ado-ado).
NHERF4_2, Q86UT5, sequence (Q86UT5 220-308): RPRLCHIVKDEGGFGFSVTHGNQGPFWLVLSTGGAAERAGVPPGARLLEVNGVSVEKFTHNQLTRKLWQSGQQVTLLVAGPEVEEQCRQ
Design: key: below the threshold = too weak to quantify, mostly under pKd 3.1 to 4

pKd | Binder
below the threshold | TRKRSGEAAV [PFKM, P08237]
below the threshold | SLNANEVEWF [RNF130, Q86XS8]

What follows are binders tested against MAST2, Q6P0Q8 (assay: holdup assay). Settings: plain residues with an end cap or a label only (N-terminal biotin on a linker: ado-ado).
MAST2, Q6P0Q8, sequence (Q6P0Q8 1099-1202): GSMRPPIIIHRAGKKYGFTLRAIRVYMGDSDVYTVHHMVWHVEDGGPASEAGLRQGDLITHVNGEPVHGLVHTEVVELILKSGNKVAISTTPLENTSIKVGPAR
Design: key: below the threshold = too weak to quantify, mostly under pKd 3.1 to 4

pKd | Binder
4.16 | TRKRSGEAAV [PFKM, P08237]
4.32 | SLNANEVEWF [RNF130, Q86XS8]

The binders below were run against T4, MPP7, Q5T2T1 (assay: holdup assay). Settings: plain residues with an end cap or a label only (N-terminal biotin on a linker: ado-ado).
T4 sequence (Q5T2T1 134-230, limits assumed, looked up): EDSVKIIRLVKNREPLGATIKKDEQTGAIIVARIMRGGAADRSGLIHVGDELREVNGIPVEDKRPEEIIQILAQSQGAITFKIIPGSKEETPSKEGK
Design: key: below the threshold = too weak to quantify, mostly under pKd 3.1 to 4

pKd | Binder
below the threshold | TRKRSGEAAV [PFKM, P08237]
3.53 | SLNANEVEWF [RNF130, Q86XS8]

What follows are binders tested against T5, TX1BP3, O14907 (assay: holdup assay). Settings: plain residues with an end cap or a label only (N-terminal biotin on a linker: ado-ado).
T5 sequence (O14907 10-122, limits assumed, looked up): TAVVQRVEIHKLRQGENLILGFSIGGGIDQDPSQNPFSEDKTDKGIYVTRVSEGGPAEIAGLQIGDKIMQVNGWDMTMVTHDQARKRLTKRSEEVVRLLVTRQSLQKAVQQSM
Design: key: below the threshold = too weak to quantify, mostly under pKd 3.1 to 4

pKd | Binder
4.07 | TRKRSGEAAV [PFKM, P08237]
below the threshold | SLNANEVEWF [RNF130, Q86XS8]

The binders below were run against GRIP2_3, Q9C0E4 (assay: holdup assay). Settings: plain residues with an end cap or a label only (N-terminal biotin on a linker: ado-ado).
GRIP2_3, Q9C0E4, sequence (Q9C0E4 238-339): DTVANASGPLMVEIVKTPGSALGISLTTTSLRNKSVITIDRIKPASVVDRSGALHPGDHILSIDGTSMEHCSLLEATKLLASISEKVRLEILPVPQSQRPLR
Design: key: below the threshold = too weak to quantify, mostly under pKd 3.1 to 4

pKd | Binder
below the threshold | TRKRSGEAAV [PFKM, P08237]
below the threshold | SLNANEVEWF [RNF130, Q86XS8]

These binders were tested against DLG4_1, P78352 (assay: holdup assay). Settings: plain residues with an end cap or a label only (N-terminal biotin on a linker: ado-ado).
DLG4_1, P78352, sequence (P78352 62-152): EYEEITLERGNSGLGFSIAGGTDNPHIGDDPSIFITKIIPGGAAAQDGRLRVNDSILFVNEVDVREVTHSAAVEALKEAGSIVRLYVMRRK
Design: key: below the threshold = too weak to quantify, mostly under pKd 3.1 to 4

pKd | Binder
below the threshold | TRKRSGEAAV [PFKM, P08237]
below the threshold | SLNANEVEWF [RNF130, Q86XS8]

Each binder was assayed against GRIP2_5, Q9C0E4 (assay: holdup assay). Settings: plain residues with an end cap or a label only (N-terminal biotin on a linker: ado-ado).
GRIP2_5, Q9C0E4, sequence (Q9C0E4 544-642): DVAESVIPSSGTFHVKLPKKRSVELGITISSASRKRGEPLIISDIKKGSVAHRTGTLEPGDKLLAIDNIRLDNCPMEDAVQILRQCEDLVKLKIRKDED
Design: key: below the threshold = too weak to quantify, mostly under pKd 3.1 to 4

pKd | Binder
below the threshold | TRKRSGEAAV [PFKM, P08237]
below the threshold | SLNANEVEWF [RNF130, Q86XS8]

These binders were tested against PICK1, Q9NRD5 (assay: holdup assay). Settings: plain residues with an end cap or a label only (N-terminal biotin on a linker: ado-ado).
PICK1, Q9NRD5, sequence (Q9NRD5 17-115): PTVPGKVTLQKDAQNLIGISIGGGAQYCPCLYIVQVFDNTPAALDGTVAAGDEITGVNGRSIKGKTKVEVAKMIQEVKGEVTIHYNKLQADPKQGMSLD
Design: key: below the threshold = too weak to quantify, mostly under pKd 3.1 to 4

pKd | Binder
4.18 | TRKRSGEAAV [PFKM, P08237]
below the threshold | SLNANEVEWF [RNF130, Q86XS8]

Each binder was assayed against NHERF4_4, Q86UT5 (assay: holdup assay). Settings: plain residues with an end cap or a label only (N-terminal biotin on a linker: ado-ado).
NHERF4_4, Q86UT5, sequence (Q86UT5 464-550): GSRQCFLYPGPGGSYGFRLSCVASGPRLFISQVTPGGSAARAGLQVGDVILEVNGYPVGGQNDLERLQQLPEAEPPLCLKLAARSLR
Design: key: below the threshold = too weak to quantify, mostly under pKd 3.1 to 4

pKd | Binder
below the threshold | TRKRSGEAAV [PFKM, P08237]
4.1 | SLNANEVEWF [RNF130, Q86XS8]

These binders were tested against IL16_1, Q14005 (assay: holdup assay). Settings: plain residues with an end cap or a label only (N-terminal biotin on a linker: ado-ado).
IL16_1, Q14005, sequence (Q14005 210-306): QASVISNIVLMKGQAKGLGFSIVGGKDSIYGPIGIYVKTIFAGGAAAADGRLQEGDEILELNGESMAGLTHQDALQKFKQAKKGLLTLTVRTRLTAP
Design: key: below the threshold = too weak to quantify, mostly under pKd 3.1 to 4

pKd | Binder
3.63 | TRKRSGEAAV [PFKM, P08237]
below the threshold | SLNANEVEWF [RNF130, Q86XS8]

These binders were tested against NOS1, P29475 (assay: holdup assay). Settings: plain residues with an end cap or a label only (N-terminal biotin on a linker: ado-ado).
NOS1, P29475, sequence (P29475 9-101): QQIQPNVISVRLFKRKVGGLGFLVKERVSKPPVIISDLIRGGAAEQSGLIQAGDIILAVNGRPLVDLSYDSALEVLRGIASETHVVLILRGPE
Design: key: below the threshold = too weak to quantify, mostly under pKd 3.1 to 4

pKd | Binder
4.16 | TRKRSGEAAV [PFKM, P08237]
4 | SLNANEVEWF [RNF130, Q86XS8]

The binders below were run against T6, APBA1_2, Q02410 (assay: holdup assay). Settings: plain residues with an end cap or a label only (N-terminal biotin on a linker: ado-ado).
T6 sequence (Q02410 742-832, limits assumed, looked up): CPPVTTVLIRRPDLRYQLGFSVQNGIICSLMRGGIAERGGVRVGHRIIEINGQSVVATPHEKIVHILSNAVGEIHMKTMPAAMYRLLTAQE
Design: key: below the threshold = too weak to quantify, mostly under pKd 3.1 to 4

pKd | Binder
3.9 | TRKRSGEAAV [PFKM, P08237]
3.79 | SLNANEVEWF [RNF130, Q86XS8]

The binders below were run against MAGI2_3, Q86UL8 (assay: holdup assay). Settings: plain residues with an end cap or a label only (N-terminal biotin on a linker: ado-ado).
MAGI2_3, Q86UL8, sequence (Q86UL8 600-682): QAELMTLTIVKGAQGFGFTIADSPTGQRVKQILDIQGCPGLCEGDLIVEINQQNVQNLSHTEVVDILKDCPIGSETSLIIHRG
Design: key: below the threshold = too weak to quantify, mostly under pKd 3.1 to 4

pKd | Binder
below the threshold | TRKRSGEAAV [PFKM, P08237]
3.7 | SLNANEVEWF [RNF130, Q86XS8]

What follows are binders tested against T7, PDZD2_2, O15018 (assay: holdup assay). Settings: plain residues with an end cap or a label only (N-terminal biotin on a linker: ado-ado).
T7 sequence (O15018 329-429, limits assumed, looked up): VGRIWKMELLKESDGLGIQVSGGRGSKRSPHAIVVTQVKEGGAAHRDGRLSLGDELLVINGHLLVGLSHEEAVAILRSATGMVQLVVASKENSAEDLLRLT
Design: key: below the threshold = too weak to quantify, mostly under pKd 3.1 to 4

pKd | Binder
below the threshold | TRKRSGEAAV [PFKM, P08237]
4.86 | SLNANEVEWF [RNF130, Q86XS8]

The binders below were run against PARD3_3, Q8TEW0 (assay: holdup assay). Settings: plain residues with an end cap or a label only (N-terminal biotin on a linker: ado-ado).
PARD3_3, Q8TEW0, sequence (Q8TEW0 582-685): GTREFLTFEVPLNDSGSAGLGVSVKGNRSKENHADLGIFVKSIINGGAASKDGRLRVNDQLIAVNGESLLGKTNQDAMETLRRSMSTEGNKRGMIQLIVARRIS
Design: key: below the threshold = too weak to quantify, mostly under pKd 3.1 to 4

pKd | Binder
below the threshold | TRKRSGEAAV [PFKM, P08237]
5.28 | SLNANEVEWF [RNF130, Q86XS8]

Each binder was assayed against T8, NHERF3_1, Q5T2W1 (assay: holdup assay). Settings: plain residues with an end cap or a label only (N-terminal biotin on a linker: ado-ado).
T8 sequence (Q5T2W1 4-100, limits assumed, looked up): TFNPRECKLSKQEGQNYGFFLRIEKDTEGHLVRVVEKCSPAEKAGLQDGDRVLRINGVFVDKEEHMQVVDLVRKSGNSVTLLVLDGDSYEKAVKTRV
Design: key: below the threshold = too weak to quantify, mostly under pKd 3.1 to 4

pKd | Binder
below the threshold | TRKRSGEAAV [PFKM, P08237]
3.89 | SLNANEVEWF [RNF130, Q86XS8]

Each binder was assayed against T9, MPDZ_10, O75970 (assay: holdup assay). Settings: plain residues with an end cap or a label only (N-terminal biotin on a linker: ado-ado).
T9 sequence (O75970 1624-1722, limits assumed, looked up): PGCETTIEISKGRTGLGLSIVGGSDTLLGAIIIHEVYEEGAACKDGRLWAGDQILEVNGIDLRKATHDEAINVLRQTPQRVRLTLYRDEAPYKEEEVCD
Design: key: below the threshold = too weak to quantify, mostly under pKd 3.1 to 4

pKd | Binder
below the threshold | TRKRSGEAAV [PFKM, P08237]
below the threshold | SLNANEVEWF [RNF130, Q86XS8]

The binders below were run against T10, ARHGAP21, Q5T5U3 (assay: holdup assay). Settings: plain residues with an end cap or a label only (N-terminal biotin on a linker: ado-ado).
T10 sequence (Q5T5U3 45-169, limits assumed, looked up): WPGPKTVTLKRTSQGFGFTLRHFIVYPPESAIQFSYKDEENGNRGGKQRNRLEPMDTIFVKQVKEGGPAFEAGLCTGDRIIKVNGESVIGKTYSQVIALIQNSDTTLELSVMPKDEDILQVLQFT
Design: key: below the threshold = too weak to quantify, mostly under pKd 3.1 to 4

pKd | Binder
3.83 | TRKRSGEAAV [PFKM, P08237]
4.49 | SLNANEVEWF [RNF130, Q86XS8]

These binders were tested against Inadl_4, Q8NI35 (assay: holdup assay). Settings: plain residues with an end cap or a label only (N-terminal biotin on a linker: ado-ado).
Inadl_4, Q8NI35, sequence (Q8NI35 547-651): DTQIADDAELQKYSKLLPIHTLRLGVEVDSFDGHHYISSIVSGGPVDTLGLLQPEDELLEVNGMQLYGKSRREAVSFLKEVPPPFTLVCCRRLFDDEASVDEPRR
Design: key: below the threshold = too weak to quantify, mostly under pKd 3.1 to 4

pKd | Binder
below the threshold | TRKRSGEAAV [PFKM, P08237]
below the threshold | SLNANEVEWF [RNF130, Q86XS8]
